# Results reported in patent publication US20250011410A1 (INVETX, published 2025).
# “And” between values parts separate entries of the source, which are not always exact repeats. Equal values may be shown once.
# Molecular target: T1, canine NGF tagged at the C-terminus with the Flag tag (canine, UniProt A0A8I3PYI3 122-241)
# T1 construct: mature; Expressed with baculovirus technology; also called feline NGF (processed form identical)
# Assay: SPR off-rate screen, Fab-SASA on BSA chip
# T1 sequence (A0A8I3PYI3 entry or part of it): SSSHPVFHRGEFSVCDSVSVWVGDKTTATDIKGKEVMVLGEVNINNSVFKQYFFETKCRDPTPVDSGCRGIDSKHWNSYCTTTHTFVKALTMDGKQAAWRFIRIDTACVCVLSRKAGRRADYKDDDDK
Binder,Kd,Ratio WT-kd/clone-kd,koff,kon
"felinized clone 101 Fab-SASA variant D104E (VH) (Fab, V domains shown, not shown: small tags and cut ends) VH: DVQLVESGGDLVKPGGSLRLTCVASGLSLTSSSMSWVRQAPGKGLQWVSTIYSNGGTYYTDSVKGRFTISKDNAENTLYLQMNNLKTEDTATYYCASIYYYDAEYLHWYFDFWGQGALVTVSS VL: EIQMTQSPTSLSASVGDRVTITCRASEGISNNLSWYQQTPGKAPKLLIYATSNLHSGVPSRFSGSGSGTDFTLTISSLQPEDFATYYCQQGYKWPLTFGGGTKLEITR",1.8 nM,2.21,0.000426 s⁻¹,237000 M⁻¹ s⁻¹
"felinized clone 101 Fab-SASA variant F112N (VH) (Fab, V domains shown, not shown: small tags and cut ends) VH: DVQLVESGGDLVKPGGSLRLTCVASGLSLTSSSMSWVRQAPGKGLQWVSTIYSNGGTYYTDSVKGRFTISKDNAENTLYLQMNNLKTEDTATYYCASIYYYDADYLHWYFDNWGQGALVTVSS VL: EIQMTQSPTSLSASVGDRVTITCRASEGISNNLSWYQQTPGKAPKLLIYATSNLHSGVPSRFSGSGSGTDFTLTISSLQPEDFATYYCQQGYKWPLTFGGGTKLEITR",1.85 nM,1.47,0.000643 s⁻¹,347000 M⁻¹ s⁻¹
"felinized clone 101 Fab-SASA variant F112H (VH) (Fab, V domains shown, not shown: small tags and cut ends) VH: DVQLVESGGDLVKPGGSLRLTCVASGLSLTSSSMSWVRQAPGKGLQWVSTIYSNGGTYYTDSVKGRFTISKDNAENTLYLQMNNLKTEDTATYYCASIYYYDADYLHWYFDHWGQGALVTVSS VL: EIQMTQSPTSLSASVGDRVTITCRASEGISNNLSWYQQTPGKAPKLLIYATSNLHSGVPSRFSGSGSGTDFTLTISSLQPEDFATYYCQQGYKWPLTFGGGTKLEITR",1.95 nM,1.48,0.000639 s⁻¹,328000 M⁻¹ s⁻¹
"felinized clone 101 Fab-SASA variant H55M (VL) (Fab, V domains shown, not shown: small tags and cut ends) VH: DVQLVESGGDLVKPGGSLRLTCVASGLSLTSSSMSWVRQAPGKGLQWVSTIYSNGGTYYTDSVKGRFTISKDNAENTLYLQMNNLKTEDTATYYCASIYYYDADYLHWYFDFWGQGALVTVSS VL: EIQMTQSPTSLSASVGDRVTITCRASEGISNNLSWYQQTPGKAPKLLIYATSNLMSGVPSRFSGSGSGTDFTLTISSLQPEDFATYYCQQGYKWPLTFGGGTKLEITR",0.935 nM,3.02,0.000312 s⁻¹,333000 M⁻¹ s⁻¹
"felinized clone 101 Fab-SASA variant F112E (VH) (Fab, V domains shown, not shown: small tags and cut ends) VH: DVQLVESGGDLVKPGGSLRLTCVASGLSLTSSSMSWVRQAPGKGLQWVSTIYSNGGTYYTDSVKGRFTISKDNAENTLYLQMNNLKTEDTATYYCASIYYYDADYLHWYFDEWGQGALVTVSS VL: EIQMTQSPTSLSASVGDRVTITCRASEGISNNLSWYQQTPGKAPKLLIYATSNLHSGVPSRFSGSGSGTDFTLTISSLQPEDFATYYCQQGYKWPLTFGGGTKLEITR",1.41 nM and 2.41 nM,–,0.000399 s⁻¹ and 0.000708 s⁻¹,284000 M⁻¹ s⁻¹ and 294000 M⁻¹ s⁻¹
"felinized clone 101 Fab-SASA variant G55R (VH) (Fab, V domains shown, not shown: small tags and cut ends) VH: DVQLVESGGDLVKPGGSLRLTCVASGLSLTSSSMSWVRQAPGKGLQWVSTIYSNRGTYYTDSVKGRFTISKDNAENTLYLQMNNLKTEDTATYYCASIYYYDADYLHWYFDFWGQGALVTVSS VL: EIQMTQSPTSLSASVGDRVTITCRASEGISNNLSWYQQTPGKAPKLLIYATSNLHSGVPSRFSGSGSGTDFTLTISSLQPEDFATYYCQQGYKWPLTFGGGTKLEITR",1.23 nM,6.41,0.000147 s⁻¹,120000 M⁻¹ s⁻¹
"felinized clone 101 Fab-SASA variant H55L (VL) (Fab, V domains shown, not shown: small tags and cut ends) VH: DVQLVESGGDLVKPGGSLRLTCVASGLSLTSSSMSWVRQAPGKGLQWVSTIYSNGGTYYTDSVKGRFTISKDNAENTLYLQMNNLKTEDTATYYCASIYYYDADYLHWYFDFWGQGALVTVSS VL: EIQMTQSPTSLSASVGDRVTITCRASEGISNNLSWYQQTPGKAPKLLIYATSNLLSGVPSRFSGSGSGTDFTLTISSLQPEDFATYYCQQGYKWPLTFGGGTKLEITR",1.58 nM,2.26,0.000418 s⁻¹,264000 M⁻¹ s⁻¹
"felinized clone 101 Fab-SASA variant N31Q (VL) (Fab, V domains shown, not shown: small tags and cut ends) VH: DVQLVESGGDLVKPGGSLRLTCVASGLSLTSSSMSWVRQAPGKGLQWVSTIYSNGGTYYTDSVKGRFTISKDNAENTLYLQMNNLKTEDTATYYCASIYYYDADYLHWYFDFWGQGALVTVSS VL: EIQMTQSPTSLSASVGDRVTITCRASEGISQNLSWYQQTPGKAPKLLIYATSNLHSGVPSRFSGSGSGTDFTLTISSLQPEDFATYYCQQGYKWPLTFGGGTKLEITR",1.47 nM,1.96,0.00048 s⁻¹,327000 M⁻¹ s⁻¹
"felinized clone 101 Fab-SASA variant D104Q (VH) (Fab, V domains shown, not shown: small tags and cut ends) VH: DVQLVESGGDLVKPGGSLRLTCVASGLSLTSSSMSWVRQAPGKGLQWVSTIYSNGGTYYTDSVKGRFTISKDNAENTLYLQMNNLKTEDTATYYCASIYYYDAQYLHWYFDFWGQGALVTVSS VL: EIQMTQSPTSLSASVGDRVTITCRASEGISNNLSWYQQTPGKAPKLLIYATSNLHSGVPSRFSGSGSGTDFTLTISSLQPEDFATYYCQQGYKWPLTFGGGTKLEITR",2.17 nM,1.97,0.000478 s⁻¹,220000 M⁻¹ s⁻¹
"felinized clone 101 Fab-SASA variant K64D (VH) (Fab, V domains shown, not shown: small tags and cut ends) VH: DVQLVESGGDLVKPGGSLRLTCVASGLSLTSSSMSWVRQAPGKGLQWVSTIYSNGGTYYTDSVDGRFTISKDNAENTLYLQMNNLKTEDTATYYCASIYYYDADYLHWYFDFWGQGALVTVSS VL: EIQMTQSPTSLSASVGDRVTITCRASEGISNNLSWYQQTPGKAPKLLIYATSNLHSGVPSRFSGSGSGTDFTLTISSLQPEDFATYYCQQGYKWPLTFGGGTKLEITR",1.63 nM,1.7,0.000554 s⁻¹,340000 M⁻¹ s⁻¹
"felinized clone 101 Fab-SASA variant F112P (VH) (Fab, V domains shown, not shown: small tags and cut ends) VH: DVQLVESGGDLVKPGGSLRLTCVASGLSLTSSSMSWVRQAPGKGLQWVSTIYSNGGTYYTDSVKGRFTISKDNAENTLYLQMNNLKTEDTATYYCASIYYYDADYLHWYFDPWGQGALVTVSS VL: EIQMTQSPTSLSASVGDRVTITCRASEGISNNLSWYQQTPGKAPKLLIYATSNLHSGVPSRFSGSGSGTDFTLTISSLQPEDFATYYCQQGYKWPLTFGGGTKLEITR",1.39 nM,1.71,0.000552 s⁻¹,398000 M⁻¹ s⁻¹
"felinized clone 101 Fab-SASA variant L54H (VL) (Fab, V domains shown, not shown: small tags and cut ends) VH: DVQLVESGGDLVKPGGSLRLTCVASGLSLTSSSMSWVRQAPGKGLQWVSTIYSNGGTYYTDSVKGRFTISKDNAENTLYLQMNNLKTEDTATYYCASIYYYDADYLHWYFDFWGQGALVTVSS VL: EIQMTQSPTSLSASVGDRVTITCRASEGISNNLSWYQQTPGKAPKLLIYATSNHHSGVPSRFSGSGSGTDFTLTISSLQPEDFATYYCQQGYKWPLTFGGGTKLEITR",1.65 nM,1.68,0.00056 s⁻¹,340000 M⁻¹ s⁻¹
"felinized clone 101 Fab-SASA variant H55I (VL) (Fab, V domains shown, not shown: small tags and cut ends) VH: DVQLVESGGDLVKPGGSLRLTCVASGLSLTSSSMSWVRQAPGKGLQWVSTIYSNGGTYYTDSVKGRFTISKDNAENTLYLQMNNLKTEDTATYYCASIYYYDADYLHWYFDFWGQGALVTVSS VL: EIQMTQSPTSLSASVGDRVTITCRASEGISNNLSWYQQTPGKAPKLLIYATSNLISGVPSRFSGSGSGTDFTLTISSLQPEDFATYYCQQGYKWPLTFGGGTKLEITR",1.31 nM,2.16,0.000436 s⁻¹,334000 M⁻¹ s⁻¹
"felinized clone 101 Fab-SASA variant K64E (VH) (Fab, V domains shown, not shown: small tags and cut ends) VH: DVQLVESGGDLVKPGGSLRLTCVASGLSLTSSSMSWVRQAPGKGLQWVSTIYSNGGTYYTDSVEGRFTISKDNAENTLYLQMNNLKTEDTATYYCASIYYYDADYLHWYFDFWGQGALVTVSS VL: EIQMTQSPTSLSASVGDRVTITCRASEGISNNLSWYQQTPGKAPKLLIYATSNLHSGVPSRFSGSGSGTDFTLTISSLQPEDFATYYCQQGYKWPLTFGGGTKLEITR",2.42 nM,1.98,0.000476 s⁻¹,196000 M⁻¹ s⁻¹
"felinized clone 101 Fab-SASA variant D104N (VH) (Fab, V domains shown, not shown: small tags and cut ends) VH: DVQLVESGGDLVKPGGSLRLTCVASGLSLTSSSMSWVRQAPGKGLQWVSTIYSNGGTYYTDSVKGRFTISKDNAENTLYLQMNNLKTEDTATYYCASIYYYDANYLHWYFDFWGQGALVTVSS VL: EIQMTQSPTSLSASVGDRVTITCRASEGISNNLSWYQQTPGKAPKLLIYATSNLHSGVPSRFSGSGSGTDFTLTISSLQPEDFATYYCQQGYKWPLTFGGGTKLEITR",1.87 nM,2.11,0.000446 s⁻¹,239000 M⁻¹ s⁻¹
"felinized clone 101 Fab-SASA variant G55Y (VH) (Fab, V domains shown, not shown: small tags and cut ends) VH: DVQLVESGGDLVKPGGSLRLTCVASGLSLTSSSMSWVRQAPGKGLQWVSTIYSNYGTYYTDSVKGRFTISKDNAENTLYLQMNNLKTEDTATYYCASIYYYDADYLHWYFDFWGQGALVTVSS VL: EIQMTQSPTSLSASVGDRVTITCRASEGISNNLSWYQQTPGKAPKLLIYATSNLHSGVPSRFSGSGSGTDFTLTISSLQPEDFATYYCQQGYKWPLTFGGGTKLEITR",1.83 nM,2.25,0.000419 s⁻¹,229000 M⁻¹ s⁻¹
"felinized clone 101 Fab-SASA variant N53H (VL) (Fab, V domains shown, not shown: small tags and cut ends) VH: DVQLVESGGDLVKPGGSLRLTCVASGLSLTSSSMSWVRQAPGKGLQWVSTIYSNGGTYYTDSVKGRFTISKDNAENTLYLQMNNLKTEDTATYYCASIYYYDADYLHWYFDFWGQGALVTVSS VL: EIQMTQSPTSLSASVGDRVTITCRASEGISNNLSWYQQTPGKAPKLLIYATSHLHSGVPSRFSGSGSGTDFTLTISSLQPEDFATYYCQQGYKWPLTFGGGTKLEITR",1.95 nM,1.5,0.000627 s⁻¹,322000 M⁻¹ s⁻¹
"felinized clone 101 Fab-SASA variant D104K (VH) (Fab, V domains shown, not shown: small tags and cut ends) VH: DVQLVESGGDLVKPGGSLRLTCVASGLSLTSSSMSWVRQAPGKGLQWVSTIYSNGGTYYTDSVKGRFTISKDNAENTLYLQMNNLKTEDTATYYCASIYYYDAKYLHWYFDFWGQGALVTVSS VL: EIQMTQSPTSLSASVGDRVTITCRASEGISNNLSWYQQTPGKAPKLLIYATSNLHSGVPSRFSGSGSGTDFTLTISSLQPEDFATYYCQQGYKWPLTFGGGTKLEITR",5.45 nM,2.84,0.000332 s⁻¹,60900 M⁻¹ s⁻¹
